Source: PMC5503513, “Tandem hnRNP A1 RNA recognition motifs act in concert to repress the splicing of survival motor neuron exon 7”

Key:
hnRNP A1 RRM1 R92A [1] = target: T1, hnRNP A1 RRM1 R92A (UniProt P09651 2-97, R92A); assay: ITC; 10 mM sodium phosphate pH 6.5, 10 mM 2-mercaptoethanol, no added salt, 30 C; RNA 5-10 uM in the cell; 1:1 fit; settings: one extra N-terminal Ala in PDB 5MPG (left out)
hnRNP A1 UP1 R1r2 [2] = target: hnRNP A1 UP1 R1r2 (Homo sapiens, UniProt P09651 2-196, F108A;F150A); assay: as above; settings: extra N-terminal Gly-Gly in PDB 2LYV (left out)
Chain of hnRNP A1 UP1 R1r2 (P09651 2-196 F108A/F150A): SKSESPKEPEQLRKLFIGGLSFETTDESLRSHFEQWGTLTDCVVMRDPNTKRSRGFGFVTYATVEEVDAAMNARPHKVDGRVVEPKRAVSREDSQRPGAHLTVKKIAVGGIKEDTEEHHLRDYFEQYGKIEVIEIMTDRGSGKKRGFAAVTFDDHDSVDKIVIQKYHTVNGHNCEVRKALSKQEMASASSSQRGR

hnRNP A1 UP1 r1R2 [3] = target: hnRNP A1 UP1 r1R2 (Homo sapiens, UniProt P09651 2-196, F17A;F59A); assay: as above; settings: extra N-terminal Gly-Gly in PDB 2LYV (left out)
Chain of hnRNP A1 UP1 r1R2 (P09651 2-196 F17A/F59A): as the sequence (P09651 2-196 F108A/F150A) above, with F16A, F58A, A107F, A149F counted along it

hnRNP A1 RRM1 R55A = hnRNP A1 RRM1 R55A (UniProt P09651 2-97, R55A); assay: as above; settings: one extra N-terminal Ala in PDB 5MPG (left out)
Chain of hnRNP A1 RRM1 R55A (P09651 2-97 R55A): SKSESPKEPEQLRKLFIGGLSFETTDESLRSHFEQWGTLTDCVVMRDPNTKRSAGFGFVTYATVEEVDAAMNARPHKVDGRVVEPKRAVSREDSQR

hnRNP A1 RRM2 R140A [4] = target: T2, hnRNP A1 RRM2 R140A (UniProt P09651 95-196, R140A); assay: as above; settings: none in PDB 5MPL
T2 sequence (P09651 95-196 R140A): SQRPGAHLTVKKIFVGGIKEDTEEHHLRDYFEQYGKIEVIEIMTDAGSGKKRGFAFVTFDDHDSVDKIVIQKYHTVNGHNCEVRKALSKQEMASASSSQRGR

hnRNP A1 RRM1 D42A [5] = target: T3, hnRNP A1 RRM1 D42A (UniProt P09651 2-97, D42A); assay: as above; settings: one extra N-terminal Ala in PDB 5MPG (left out)
T3 sequence (P09651 2-97 D42A): as the sequence (P09651 2-97 R55A) above, with D41A, A54R counted along it

hnRNP A1 RRM1 F23A [6] = target: T4, hnRNP A1 RRM1 F23A (UniProt P09651 2-97, F23A); assay: as above; settings: one extra N-terminal Ala in PDB 5MPG (left out)
T4 sequence (P09651 2-97 F23A): as the sequence (P09651 2-97 R55A) above, with F22A, A54R counted along it

hnRNP A1 RRM1 R92A [7] = target: T1, hnRNP A1 RRM1 R92A; assay: ITC; range, no saturation; ITC: 10 mM NaPi pH 6.5, 10 mM 2-mercaptoethanol, 30 C, protein titrated into RNA; NMR: 10 mM NaPi pH 6.5, 1 mM DTT (303 K stated for UP1-R140A:ISS-N1-u25g); settings: protein: recombinant; single strand
hnRNP A1 RRM1 [8] = target: T5, hnRNP A1 RRM1 (UniProt P09651 2-97); assay: ITC; first listed measurement; ITC: 10 mM NaPi pH 6.5, 10 mM 2-mercaptoethanol, 30 C, protein titrated into RNA; NMR: 10 mM NaPi pH 6.5, 1 mM DTT (303 K stated for UP1-R140A:ISS-N1-u25g); settings: protein: recombinant; single strand
T5 sequence (P09651 2-97): as the sequence (P09651 2-97 R55A) above, with A54R counted along it

hnRNP A1 RRM1 F23A [9] = target: T4, hnRNP A1 RRM1 F23A; assay: ITC; second listed measurement; ITC: 10 mM NaPi pH 6.5, 10 mM 2-mercaptoethanol, 30 C, protein titrated into RNA; NMR: 10 mM NaPi pH 6.5, 1 mM DTT (303 K stated for UP1-R140A:ISS-N1-u25g); settings: protein: recombinant; single strand
hnRNP A1 RRM2 = hnRNP A1 RRM2 (UniProt P09651 95-196); assay: ITC; ITC: 10 mM NaPi pH 6.5, 10 mM 2-mercaptoethanol, 30 C, protein titrated into RNA; NMR: 10 mM NaPi pH 6.5, 1 mM DTT (303 K stated for UP1-R140A:ISS-N1-u25g); settings: protein: recombinant; single strand
Chain of hnRNP A1 RRM2 (P09651 95-196): as the sequence (P09651 95-196 R140A) above, with A46R counted along it

hnRNP A1 RRM1 [10] = target: T5, hnRNP A1 RRM1; assay: as above; settings: protein: recombinant; single strand
UP1 r1R2 [11] = target: UP1 r1R2 (UniProt P09651 1-196, F17A;F59A); assay: as above; settings: protein: recombinant; single strand
Chain of UP1 r1R2 (P09651 1-196 F17A/F59A): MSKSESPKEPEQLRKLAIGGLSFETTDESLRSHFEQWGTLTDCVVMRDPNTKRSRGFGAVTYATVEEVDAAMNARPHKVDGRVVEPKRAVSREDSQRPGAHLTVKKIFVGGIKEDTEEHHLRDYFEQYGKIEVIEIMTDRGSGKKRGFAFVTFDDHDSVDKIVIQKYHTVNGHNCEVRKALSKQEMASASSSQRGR

hnRNP A1 RRM2 E176Q [12] = target: T6, hnRNP A1 RRM2 E176Q (UniProt P09651 95-196, E176Q); assay: as above; settings: protein: recombinant; single strand
T6 sequence (P09651 95-196 E176Q): as the sequence (P09651 95-196 R140A) above, with A46R, E82Q counted along it

hnRNP A1 RRM2 R140A [13] = target: T2, hnRNP A1 RRM2 R140A; assay: as above; settings: protein: recombinant; single strand
hnRNP A1 RRM1 D42A [14] = target: T3, hnRNP A1 RRM1 D42A; assay: as above; settings: protein: recombinant; single strand
hnRNP A1 RRM1 F23A [15] = target: T4, hnRNP A1 RRM1 F23A; assay: as above; settings: protein: recombinant; single strand
UP1 R1r2 [16] = target: UP1 R1r2 (UniProt P09651 1-196, F108A;F150A); assay: as above; settings: protein: recombinant; single strand
Chain of UP1 R1r2 (P09651 1-196 F108A/F150A): as the sequence (P09651 1-196 F17A/F59A) above, with A17F, A59F, F108A, F150A counted along it

hnRNP A1 RRM1 [17] = target: T5, hnRNP A1 RRM1; assay: ITC; 10 mM sodium phosphate pH 6.5, 10 mM 2-mercaptoethanol, no added salt, 30 C; RNA 5-10 uM in the cell; 1:1 fit; settings: one extra N-terminal Ala in PDB 5MPG (left out)
hnRNP A1 RRM2 E176Q [18] = target: T6, hnRNP A1 RRM2 E176Q; assay: as above; settings: none in PDB 5MPL
hnRNP A1 RRM2 M186A [19] = target: T7, hnRNP A1 RRM2 M186A (UniProt P09651 95-196, M186A); assay: as above; settings: none in PDB 5MPL
T7 sequence (P09651 95-196 M186A): as the sequence (P09651 95-196 R140A) above, with A46R, M92A counted along it

hnRNP A1 RRM1 [20] = target: T5, hnRNP A1 RRM1; assay: ITC; range, no saturation; ITC: 10 mM NaPi pH 6.5, 10 mM 2-mercaptoethanol, 30 C, protein titrated into RNA; NMR: 10 mM NaPi pH 6.5, 1 mM DTT (303 K stated for UP1-R140A:ISS-N1-u25g); settings: protein: recombinant; single strand
hnRNP A1 RRM1 D42A [21] = target: T3, hnRNP A1 RRM1 D42A; assay: as above; settings: protein: recombinant; single strand
hnRNP A1 RRM2 Y167F = hnRNP A1 RRM2 Y167F (UniProt P09651 95-196, Y167F); assay: ITC; ITC: 10 mM NaPi pH 6.5, 10 mM 2-mercaptoethanol, 30 C, protein titrated into RNA; NMR: 10 mM NaPi pH 6.5, 1 mM DTT (303 K stated for UP1-R140A:ISS-N1-u25g); settings: protein: recombinant; single strand
Chain of hnRNP A1 RRM2 Y167F (P09651 95-196 Y167F): as the sequence (P09651 95-196 R140A) above, with A46R, Y73F counted along it

hnRNP A1 RRM2 M186A [22] = target: T7, hnRNP A1 RRM2 M186A; assay: as above; settings: protein: recombinant; single strand

T1 sequence (P09651 2-97 R92A): as the sequence (P09651 2-97 R55A) above, with A54R, R91A counted along it

Row | Binder | Kd (hnRNP A1 RRM1 R92A [1]) | Kd (hnRNP A1 UP1 R1r2 [2]) | Kd (hnRNP A1 UP1 r1R2 [3]) | Kd (hnRNP A1 RRM2 R140A [4]) | Kd (hnRNP A1 RRM1 D42A [5]) | Kd (hnRNP A1 RRM2) | Kd (UP1 r1R2 [11]) | Kd (hnRNP A1 RRM2 E176Q [12]) | Kd (hnRNP A1 RRM2 R140A [13]) | further results
1 | UUAGGUC (ssRNA) | ~2.85 µM | 0.045 ± 0.002 µM | 0.0562 ± 0.004 µM | 0.195 ± 0.012 µM | 0.787 ± 0.042 µM | 0.064 ± 0.008 µM | 0.056 ± 0.004 µM | 0.116 ± 0.039 µM | 0.195 ± 0.012 µM | Kd (hnRNP A1 RRM1 R55A): > 10 µM; Kd (hnRNP A1 RRM1 F23A [6]): 0.209 ± 0.013 µM; Kd (hnRNP A1 RRM1 R92A [7]): ~2.24 µM; Kd (hnRNP A1 RRM1 [8]): 0.292 ± 0.017 µM; Kd (hnRNP A1 RRM1 F23A [9]): 0.193 ± 0.011 µM; Kd (hnRNP A1 RRM1 [10]): 0.288 ± 0.016 µM; Kd (hnRNP A1 RRM1 D42A [14]): 0.787 ± 0.042 µM; Kd (hnRNP A1 RRM1 F23A [15]): 0.225 ± 0.013 µM; Kd (UP1 R1r2 [16]): 0.047 ± 0.002 µM
2 | UUAGUU (ssRNA) | > 10 µM | 0.105 ± 0.008 µM | 0.142 ± 0.009 µM | 0.433 ± 0.026 µM | ~2.69 µM | 0.125 ± 0.009 µM | 0.142 ± 0.009 µM | 0.286 ± 0.012 µM | 0.433 ± 0.026 µM | Kd (hnRNP A1 RRM1 [17]): ~5.99 µM; Kd (hnRNP A1 RRM2 E176Q [18]): 0.286 ± 0.012 µM; Kd (hnRNP A1 RRM2 M186A [19]): 0.253 ± 0.015 µM; Kd (hnRNP A1 RRM1 [20]): ~5.2 µM; Kd (hnRNP A1 RRM1 D42A [21]): ~2.24 µM; Kd (hnRNP A1 RRM2 Y167F): 0.118 ± 0.009 µM; Kd (hnRNP A1 RRM2 M186A [22]): 0.253 ± 0.015 µM
